System: MS2 coat protein
Assay: apparent KD of MS2 coat protein; designed switch direction (-1 OFF switch, 1 ON switch): -1; higher = weaker reporter binding
Summary of the method: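 Transcription of designed RNA switches on Illumina chips was done by stalled E. coli RNA polymerase. SNAP-549-labelled MS2 coat protein was then titrated in doubling steps from 0.7 or 1.5 nM to 3 µM, with steps of 0.8–1.5 h at the lowest and 10–20 min at the highest concentration. The per-design median over clusters of curve-fitted normalised fluorescence is reported as apparent KD.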

[1] = Eterna round: R95, input ligand: FMN 200 uM
[2] = Eterna round: R95, input ligand: microRNA oligo, concentration not stated
[3] = Eterna round: R95, input ligand: none
[4] = input ligand: microRNA oligo, concentration not stated

| Sequence | apparent KD of MS2 coat protein [1] [µM] | apparent KD of MS2 coat protein [2] [µM] | apparent KD of MS2 coat protein [3] [µM] | apparent KD of MS2 coat protein (input ligand: FMN 200 uM) [µM] | apparent KD of MS2 coat protein [4] [µM] | apparent KD of MS2 coat protein (input ligand: none) [µM] |
| --- | --- | --- | --- | --- | --- | --- |
| CCAUCCAGUGUGAGGAUAUGCUGGUCCUUGGAUCAGCAGAAGGCACAUGAGGAUCACCCAUGUGAAUAGGAUGG [Mat - Exclusion 4 - JL Mod - D85] (puzzle: Brourd's mod of Exclusion 4) | 0.153 | 0.0189 | 0.0241 |  |  |  |
| CAGUACUACAAGCUAAGGGACAUGAGGAUCACCCAUGUUCGUCUUAUUGAUCUAGGUACGCUGACGUACCUAGAUCU [JL-sv1-2.18 Brourd mod] (puzzle: Sensor v3, turn-off variant 1) | 0.0136 | 0.0208 | 0.0138 |  |  |  |
| UGUCAGAUGGUAGGAUAUCCUUAUCGCGUGUCCCUUUCCUAACAUGAGGAUCACCCAUGUCGGUGGGAGAAGGGCCGUAUGGUG [salish99_ExNG02_R04_038] (Eterna round: R96, puzzle: Exclusion NG 2) |  |  |  | 0.0115 | 0.0112 | 0.0134 |
| GAGUUAACAUGAGGAAUAUACAUGAGGAUCACCCAUGUUAACAAAACUUUUGCUCGUCUUAUAACAACAAUUAACUC [Alarm 2 - Jieux - Sensor, turn-off variant 1] (Eterna round: R97, puzzle: Sensor, turn-off variant 1) |  |  |  | 0.347 |  | 0.133 |
| GCGCCAUCGUGAGAUGGCGUAACGACAUGAGGAUCACCCAUGUAGGAUAUCGAUUGCUUUGCAGUCGAGAAGGGCAAGGUAAGU [JL ENG3 3.83] (Eterna round: R96, puzzle: Exclusion NG 3) |  |  |  |  | 0.0243 |  |
| UAGAUGGGAGGAUAUACAUAGAUACAGAUUCAUGUAGUGCUACAUGAGGAUCACCCAUGUAGAAGGCCCGUCUU [JL-ex2-2.18 Mayanne mod] (puzzle: Exclusion 2) |  | 0.0316 |  |  |  |  |
| GGUUGGCGAGGAUAUACAUGAGGAUCACCCAUGUGAGAGAAGAAAGUGAGGAAGAAAAGUAGAAGGCGCUGACG [salish99_ex3_r3_004] (puzzle: Exclusion 3) | 0.133 | 0.059 | 0.0624 |  |  |  |
| UUAUAAAGAGUGAGGAUAUGCUGGUCCUUGGAUCAGCAGAAGGCACAUGAGGAUCACCCAUGUAAAAUAAUAUU [Mat - Exclusion 4 - JL Mod - D40] (puzzle: Brourd's mod of Exclusion 4) |  | 0.0254 |  |  |  |  |
| AUAUAGUGAGGAUAUACAUGAGGAUCACCCAUGUGGUAGUAGAUACAGUAGAGAUAGAGUAGAAGGCACGAUGA [EX3 #26] (Eterna round: R97, puzzle: Exclusion 3) |  |  |  | 0.197 |  | 0.068 |
| ACAUUUGUAGAGGAUAUCAAGCCCAGGCUCCGUUGAGAAGGUUACACAUGAGGAUCACCCAUGUCCUCCUUACC [Eternabot (L1) Solution 4] (Eterna round: R97, puzzle: Exclusion 6) |  |  |  | 0.168 |  | 0.162 |
| UCGUGGUUACGCUGCAGUUGCCUGAGCGGAGGCUCUGUGACAUGAGGAUCACCCAUGUAGCUUUUUGCUCAUCUUAA [JR_SV3TOV2_Sub040] (puzzle: Sensor v3, turn-off variant 2) | 0.0252 | 0.0399 | 0.0246 |  |  |  |
| AAAUUCAGAGGAUAUGCGCAUAGAUAAGACUUUUUUUCUUAACAUGAGGAUCACCCAUGUAGAAGGCUGUAAAA [Ex2 #60] (Eterna round: R97, puzzle: Exclusion 2) |  |  |  | 0.0205 |  | 0.0184 |
| ACAUGAGGAUCACCCAUGUCCGGCUGGUCUGUCUCGGCUGUCGAGGAUAUAGCUCGGUAUCCGCGCUAGAAGGCGGGAGCCGGC [Aenatbe mod 90] (Eterna round: R96, puzzle: Exclusion NG 3) |  |  |  | 0.098 | 0.0435 | 0.0727 |
| UUUUCGUAAGGAUAUGGUUAGAUCUACGAAAGUAGAUCUAACCAGAAGGUACAUGAGGAUCACCCAUGUUGGUA [Mod of Brourd 22 - Jieux - Exclusion 4] (Eterna round: R97, puzzle: Exclusion 4) |  |  |  | 0.0798 |  | 0.0299 |
| UACAUGAGGAUCACCCAUGUUUUGUCGUGUAUGGUAUUUAUCUAGGAUAUCAUUGUAUUUAGUUAUGAGAAGGAGAAUAUUAAU [JMF's solution 83] (Eterna round: R96, puzzle: Exclusion NG 3) |  |  |  | 0.0302 | 0.0229 | 0.033 |
| CCAUAUAACACAGGAUAUCAUCGCAACUGACGUUGAGAAGGGUGACAUGAGGAUCACCCAUGUGAUUUCUCAAUAUUAUACAUC [Prohibition 81 - Jieux - Exclusion NG 1] (Eterna round: R96, puzzle: Exclusion NG 1) |  |  |  | 1.04 | 0.661 | 1.11 |
| AACAGUACAGGAUAUACAUGAGGAUCACCCAUGUGAGAAUUAAGUGGAAAACCACAAAGUAGAAGGGUACUGGA [Mat - Exclusion 3 - JL mod - D3] (Eterna round: R96, puzzle: Exclusion 3) |  |  |  | 0.209 | 0.0233 |  |

| Sequence | apparent KD of MS2 coat protein [1] [µM] | apparent KD of MS2 coat protein [2] [µM] | apparent KD of MS2 coat protein [3] [µM] | apparent KD of MS2 coat protein (input ligand: FMN 200 uM) [µM] | apparent KD of MS2 coat protein [4] [µM] | apparent KD of MS2 coat protein (input ligand: none) [µM] |
| --- | --- | --- | --- | --- | --- | --- |
| GUUAUACAUGAGGAUCACCCAUGUCAGGAUAUUAUCUAUCUUUGGAAGCAUUGAUCGCUAAGAAGGGACUAGUA [Bubbles2] (Eterna round: R97, puzzle: Exclusion 1) |  |  |  | 0.028 |  | 0.033 |
| CACAAAACUGUCAGGAUAUCAGAUGCCGACCCAUAUGAGAAGGGACAUGAGGAUCACCCAUGUACUGGUUCUCA [BmEX4 B.6] (Eterna round: R97, puzzle: Brourd's mod of Exclusion 4) |  |  |  | 0.0139 |  | 0.0198 |
| ACAUGAGGAUCACCCAUGUGACCACAAUGGCUGAUGUAACAACAGGAUAUGUGUGAAUAUCUAACACAGAAGGGUUUUGACUGG [Deportation 58 - Jieux - Exclusion NG 3] (Eterna round: R96, puzzle: Exclusion NG 3) |  |  |  | 0.0769 | 0.0593 | 0.0759 |
| CAGUACUGAGGAUAUACAUGAGGAUCACCCAUGUGUUCCAGCUGGGAAACUAGCAAAAGUAGAAGGCAGUACUG [salish99_ex3_r3_076] (puzzle: Exclusion 3) | 0.422 | 0.0273 | 0.0208 |  |  |  |
| CUGAGUAGUCAGGAUAUGUGGUACAAAAGUACAGCAGAAGGGAUUACAUGAGGAUCACCCAUGUUUACUUCAUG [Omei Ex6 B16] (Eterna round: R97, puzzle: Exclusion 6) |  |  |  | 0.0579 |  | 0.0326 |
| AAUUUACAUGAGGAUCACCCAUGUGAGGAUAUGGUUUCGCUGGCCGUAGCCAGUGGAACCAGAAGGCGCAUGAU [Mat - Exclusion 1 - JL Mod - D12] (Eterna round: R97, puzzle: Exclusion 1) |  |  |  | 0.283 |  | 0.0652 |
| CUGAUGUUAGGAUAUCAGGCGCCCGCCACUGGCAGGGCGCAUGAGAAGGGACAUGAGGAUCACCCAUGUAGUAA [Anorbeus] (puzzle: Exclusion 4) |  | 0.0263 |  |  |  |  |
| ACAUGUCAUCGAGGAUAUUGCACACAUGAGGAUCACCCAUGUAUACGGUUGCUCUUGCGUGAGUUCGAGAAGGCGAUGUACAUU [Ex NG2 #86] (Eterna round: R96, puzzle: Exclusion NG 2) |  |  |  | 0.109 | 0.198 | 0.313 |
| UAUAUAUAGUAAGGAUAUGUAAUUAGUUUAUAAACAGAAGGUACUGACAUGAGGAUCACCCAUGUUUUAGUGUGGGCAUGUAGA [JMF's solution 36] (Eterna round: R96, puzzle: Exclusion NG 1) |  |  |  |  | 0.0613 |  |
| GGAUCGAAAGUGAGGAUAUACCUAUGGAUACAUAGGUAGAAGGCACAUGAGGAUCACCCAUGUUCCUACGGUCC [Eli bmx4 4.10] (Eterna round: R97, puzzle: Brourd's mod of Exclusion 4) |  |  |  | 0.114 |  | 0.0184 |
| CGCGUUUAUGUAGGAUAUGCCUGGCGUGCCUUAGCAGAAGGACAUGAGGAUCACCCAUGUAACAUGAGGCUCACCCAUGUCGCA (Eterna round: R96, puzzle: Exclusion NG 1) |  |  |  | 0.201 | 0.12 | 0.167 |
| UCGUUUCGUGUAGGAUAUUGGCCUGCUCUGGGUCGAGAAGGACAUGAGGAUCACCCAUGUAUGUUAUUAUCACGCGUGGCGCAU [Design 82] (Eterna round: R96, puzzle: Exclusion NG 1) |  |  |  | 0.124 | 0.034 | 0.0366 |
| CUGCUGGAGCUUUGCUUUAGUCGUACAUGAGGAUCACCCAUGUAGGAUAUGGUAGGCUUUGCUUACUAGAAGGAUGGAGUGGUC [salish99_ExNG3_r04_607] (Eterna round: R96, puzzle: Exclusion NG 3) |  |  |  | 0.166 | 0.0381 | 0.0502 |
| ACAGCGUGAGGAUAUACAUGAGGAUCACCCAUGUGUGGCAGGUUAUCCUGUCAUAAGUGUAGAAGGCACGCUGU [Exclusion 3 - Oddities v.6 ( A small slide from ms2 to fmn)] (puzzle: Exclusion 3) |  | 0.0372 |  |  |  |  |
| AGAUGGCGAGGAUAUACAUGAGGAUCACCCAUGUGAGAUAAAAGAGUGAGGAAGAAAAGUAGAAGGCGCUGUCA [Mat - Exclusion 3 - Mod of Salish D16] (puzzle: Exclusion 3) | 0.116 | 0.0958 | 0.12 |  |  |  |
| AGGAUGUAAGGAUAUCCAAGGGUAACGCCAAUGGCAGCCCAGGAGAAGGUACAUGAGGAUCACCCAUGUGAUAA [Leatbi] (Eterna round: R97, puzzle: Exclusion 4) |  |  |  | 0.263 |  | 0.0808 |

From the supplement of paper PMC9170038
